In patent US20180185464A1:

Target: human DC-SIGN (human) (UniProt Q9NNX6)
Test: cell-based or functional assay

Chain of UniProt Q9NNX6 (Q9NNX6 whole entry): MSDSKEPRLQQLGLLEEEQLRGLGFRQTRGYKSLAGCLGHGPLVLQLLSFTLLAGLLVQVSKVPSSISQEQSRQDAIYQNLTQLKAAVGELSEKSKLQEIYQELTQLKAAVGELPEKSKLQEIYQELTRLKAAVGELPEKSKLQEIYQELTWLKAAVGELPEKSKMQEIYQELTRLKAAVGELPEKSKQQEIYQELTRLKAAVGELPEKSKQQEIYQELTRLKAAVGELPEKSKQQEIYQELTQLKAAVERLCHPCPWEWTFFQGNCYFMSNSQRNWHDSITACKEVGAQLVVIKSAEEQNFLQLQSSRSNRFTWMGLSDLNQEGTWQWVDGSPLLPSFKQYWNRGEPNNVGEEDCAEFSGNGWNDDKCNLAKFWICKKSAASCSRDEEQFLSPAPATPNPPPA

| Substance | Internalisation (MFI) DC-SIGN transgenic CD11c+ cells, PBS wash; liposomes engrafted with gp120-6his 27.43 µg/mL, 37 C (unengrafted 74.3) | Internalisation (MFI) DC-SIGN transgenic CD11c+ cells, imidazole wash; liposomes engrafted with gp120-6his 27.43 µg/mL, 37 C (unengrafted 77.2) | Internalisation (MFI) DC-SIGN transgenic CD11c+ cells, PBS wash; liposomes engrafted with FliC-6his 23.04 µg/mL, 37 C (unengrafted 74.3) | Internalisation (MFI) DC-SIGN transgenic CD11c+ cells, imidazole wash; liposomes engrafted with FliC-6his 23.04 µg/mL, 37 C (unengrafted 77.2) |
| --- | --- | --- | --- | --- |
| histidine tagged gp120 (gp120-6his) | 118 | 126 | – | – |
| histidine-tagged FliC (FliC-6his) (from UniProt P06179 2-495) (ligand) | – | – | 70.8 | 79.2 |
